The target of the assay is cynomolgus monkey FcRn (cynomolgus monkey) (UniProt Q8SPV9). Kind of assay: SPR; Biacore T200, pH 6.0; antibody and FcRn; who was immobilised is not told (details in Supplementary Information). In general terms: Surface plasmon resonance follows binding to a sensor surface in real time, without labels.

The text below walks through data of paper PMC5430875.

Chain of UniProt Q8SPV9 (Q8SPV9 24-365): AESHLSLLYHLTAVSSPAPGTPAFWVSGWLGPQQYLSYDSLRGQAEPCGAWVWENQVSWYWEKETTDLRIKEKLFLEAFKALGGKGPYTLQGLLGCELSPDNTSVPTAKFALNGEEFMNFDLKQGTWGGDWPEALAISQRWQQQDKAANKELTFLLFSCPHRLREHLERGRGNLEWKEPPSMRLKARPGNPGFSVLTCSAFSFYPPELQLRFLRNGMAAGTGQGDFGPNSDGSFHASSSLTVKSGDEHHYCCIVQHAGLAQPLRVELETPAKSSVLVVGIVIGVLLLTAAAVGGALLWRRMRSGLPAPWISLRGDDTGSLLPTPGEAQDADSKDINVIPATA

One may read the Kd as the constant that tells how readily two partners part at equilibrium. In the case of trastuzumab (antibody), the dissociation constant Kd worked out at 1980 nM.
